Measured values published in patent US20250327097A1, “ORGANISMS PRODUCING LESS CROTONIC ACID” (Global Bioenergies, priority 2021, published 2025).

Test system: 3-methylcrotonic acid
Assay type: biochemical, Yersinia frederiksenii
Parameters: key: “+” representing a low increase in activity; “++++” representing a high increase in activity

| Molecule | Activity relative to WT |
| --- | --- |
| P284E-N287Q-L289H-S322T-N388M-K394R-C430N-L432F-L434W-S436N-dA463 (protein) MFLKSLREQINLLKRQGDLRIINRPVDSYLEAAAIIRRSTETKAPVPLMTNIKGYPGCSIVGGLAALSSNPEYPLSRVAMSLGLSTTASAQSIVQYLIDGLKKTPYLPVEIDSNSAPCKQNILRGEDASLAHFPIPQVHQHDGNRYVNTWGVFIVESPDGQWCNWSIQRVQYLNDRQMIALVFPSQHISDIWEEWVKIGKPMPYALVQGCEPIVPYIAGLPLLERNVNEAEYIGALYGKGIEVVKCETHDLRVPASSEVVIEGYFAITREGVEGPFGEFAGYIENEQSHQPILSITAISWQDDPIWPVVAEGKPVDEYHTCTGIGDAAAIQNVLLTANLPVSFVWVPLYSACHLMIVSINRHWRQTHPDLTSEQLTKKVGDVIHQTRMSIKLPRIVVLDDDVDPADTESLLWALATRIHPERKRYFYESNIFPWLNCYSEEERHNRKGKRVIIDALLPENHGAISSFDYAYPDDIKQRVLMHWETDFSHD | ++++ |
| P284E-N287Q-S322T-N388M-K394R-C430N-L432F-L434W-S436N-dA463-S465A (protein) MFLKSLREQINLLKRQGDLRIINRPVDSYLEAAAIIRRSTETKAPVPLMTNIKGYPGCSIVGGLAALSSNPEYPLSRVAMSLGLSTTASAQSIVQYLIDGLKKTPYLPVEIDSNSAPCKQNILRGEDASLAHFPIPQVHQHDGNRYVNTWGVFIVESPDGQWCNWSIQRVQYLNDRQMIALVFPSQHISDIWEEWVKIGKPMPYALVQGCEPIVPYIAGLPLLERNVNEAEYIGALYGKGIEVVKCETHDLRVPASSEVVIEGYFAITREGVEGPFGEFAGYIENEQSLQPILSITAISWQDDPIWPVVAEGKPVDEYHTCTGIGDAAAIQNVLLTANLPVSFVWVPLYSACHLMIVSINRHWRQTHPDLTSEQLTKKVGDVIHQTRMSIKLPRIVVLDDDVDPADTESLLWALATRIHPERKRYFYESNIFPWLNCYSEEERHNRKGKRVIIDALLPENHGAIASFDYAYPDDIKQRVLMHWETDFSHD | ++++ |
| P284E-N287Q-S322T-N388M-K394R-C430N-L432F-L434W-S436N-dA463-Y469E (protein) MFLKSLREQINLLKRQGDLRIINRPVDSYLEAAAIIRRSTETKAPVPLMTNIKGYPGCSIVGGLAALSSNPEYPLSRVAMSLGLSTTASAQSIVQYLIDGLKKTPYLPVEIDSNSAPCKQNILRGEDASLAHFPIPQVHQHDGNRYVNTWGVFIVESPDGQWCNWSIQRVQYLNDRQMIALVFPSQHISDIWEEWVKIGKPMPYALVQGCEPIVPYIAGLPLLERNVNEAEYIGALYGKGIEVVKCETHDLRVPASSEVVIEGYFAITREGVEGPFGEFAGYIENEQSLQPILSITAISWQDDPIWPVVAEGKPVDEYHTCTGIGDAAAIQNVLLTANLPVSFVWVPLYSACHLMIVSINRHWRQTHPDLTSEQLTKKVGDVIHQTRMSIKLPRIVVLDDDVDPADTESLLWALATRIHPERKRYFYESNIFPWLNCYSEEERHNRKGKRVIIDALLPENHGAISSFDEAYPDDIKQRVLMHWETDFSHD | ++++ |
| P284E-N287Q-S322T-N388M-K394R-C430N-L432F-L434W-S436N-dA463-A470S (protein) MFLKSLREQINLLKRQGDLRIINRPVDSYLEAAAIIRRSTETKAPVPLMTNIKGYPGCSIVGGLAALSSNPEYPLSRVAMSLGLSTTASAQSIVQYLIDGLKKTPYLPVEIDSNSAPCKQNILRGEDASLAHFPIPQVHQHDGNRYVNTWGVFIVESPDGQWCNWSIQRVQYLNDRQMIALVFPSQHISDIWEEWVKIGKPMPYALVQGCEPIVPYIAGLPLLERNVNEAEYIGALYGKGIEVVKCETHDLRVPASSEVVIEGYFAITREGVEGPFGEFAGYIENEQSLQPILSITAISWQDDPIWPVVAEGKPVDEYHTCTGIGDAAAIQNVLLTANLPVSFVWVPLYSACHLMIVSINRHWRQTHPDLTSEQLTKKVGDVIHQTRMSIKLPRIVVLDDDVDPADTESLLWALATRIHPERKRYFYESNIFPWLNCYSEEERHNRKGKRVIIDALLPENHGAISSFDYSYPDDIKQRVLMHWETDFSHD | ++++ |
| N388M-K394R-C430A-L432F-L434W-S436N (protein) MFLKSLREQINLLKRQGDLRIINRPVDSYLEAAAIIRRSTETKAPVPLMTNIKGYPGCSIVGGLAALSSNPEYPLSRVAMSLGLSTTASAQSIVQYLIDGLKKTPYLPVEIDSNSAPCKQNILRGEDASLAHFPIPQVHQHDGNRYVNTWGVFIVESPDGQWCNWSIQRVQYLNDRQMIALVFPSQHISDIWEEWVKIGKPMPYALVQGCEPIVPYIAGLPLLERNVNEAEYIGALYGKGIEVVKCETHDLRVPASSEVVIEGYFAITREGVEGPFGEFAGYIPNENSLQPILSITAISWQDDPIWPVVAEGKPVDEYHTCSGIGDAAAIQNVLLTANLPVSFVWVPLYSACHLMIVSINRHWRQTHPDLTSEQLTKKVGDVIHQTRMSIKLPRIVVLDDDVDPADTESLLWALATRIHPERKRYFYESAIFPWLNCYSEEERHNRKGKRVIIDALLPENHGAISSFDYAYPDDIKQRVLMHWETDFSHD | + |
| P284E-N287Q-S322T-N388M-K394R-R422H-C430N-L432F-L434W-S436N-dA463 (protein) MFLKSLREQINLLKRQGDLRIINRPVDSYLEAAAIIRRSTETKAPVPLMTNIKGYPGCSIVGGLAALSSNPEYPLSRVAMSLGLSTTASAQSIVQYLIDGLKKTPYLPVEIDSNSAPCKQNILRGEDASLAHFPIPQVHQHDGNRYVNTWGVFIVESPDGQWCNWSIQRVQYLNDRQMIALVFPSQHISDIWEEWVKIGKPMPYALVQGCEPIVPYIAGLPLLERNVNEAEYIGALYGKGIEVVKCETHDLRVPASSEVVIEGYFAITREGVEGPFGEFAGYIENEQSLQPILSITAISWQDDPIWPVVAEGKPVDEYHTCTGIGDAAAIQNVLLTANLPVSFVWVPLYSACHLMIVSINRHWRQTHPDLTSEQLTKKVGDVIHQTRMSIKLPRIVVLDDDVDPADTESLLWALATRIHPEHKRYFYESNIFPWLNCYSEEERHNRKGKRVIIDALLPENHGAISSFDYAYPDDIKQRVLMHWETDFSHD | ++++ |
| P284E-N287Q-S322T-N388M-K394R-C430N-L432F-L434W-S436N-dA463-Y469T (protein) MFLKSLREQINLLKRQGDLRIINRPVDSYLEAAAIIRRSTETKAPVPLMTNIKGYPGCSIVGGLAALSSNPEYPLSRVAMSLGLSTTASAQSIVQYLIDGLKKTPYLPVEIDSNSAPCKQNILRGEDASLAHFPIPQVHQHDGNRYVNTWGVFIVESPDGQWCNWSIQRVQYLNDRQMIALVFPSQHISDIWEEWVKIGKPMPYALVQGCEPIVPYIAGLPLLERNVNEAEYIGALYGKGIEVVKCETHDLRVPASSEVVIEGYFAITREGVEGPFGEFAGYIENEQSLQPILSITAISWQDDPIWPVVAEGKPVDEYHTCTGIGDAAAIQNVLLTANLPVSFVWVPLYSACHLMIVSINRHWRQTHPDLTSEQLTKKVGDVIHQTRMSIKLPRIVVLDDDVDPADTESLLWALATRIHPERKRYFYESNIFPWLNCYSEEERHNRKGKRVIIDALLPENHGAISSFDTAYPDDIKQRVLMHWETDFSHD | ++++ |
| P284E-N287Q-L289R-S322T-N388M-K394R-C430N-L432F-L434W-S436N-dA463 (protein) MFLKSLREQINLLKRQGDLRIINRPVDSYLEAAAIIRRSTETKAPVPLMTNIKGYPGCSIVGGLAALSSNPEYPLSRVAMSLGLSTTASAQSIVQYLIDGLKKTPYLPVEIDSNSAPCKQNILRGEDASLAHFPIPQVHQHDGNRYVNTWGVFIVESPDGQWCNWSIQRVQYLNDRQMIALVFPSQHISDIWEEWVKIGKPMPYALVQGCEPIVPYIAGLPLLERNVNEAEYIGALYGKGIEVVKCETHDLRVPASSEVVIEGYFAITREGVEGPFGEFAGYIENEQSRQPILSITAISWQDDPIWPVVAEGKPVDEYHTCTGIGDAAAIQNVLLTANLPVSFVWVPLYSACHLMIVSINRHWRQTHPDLTSEQLTKKVGDVIHQTRMSIKLPRIVVLDDDVDPADTESLLWALATRIHPERKRYFYESNIFPWLNCYSEEERHNRKGKRVIIDALLPENHGAISSFDYAYPDDIKQRVLMHWETDFSHD | ++++ |
| P284E-N287Q-S322T-N388M-K394R-C430N-L432F-L434W-S436N-dA463-A470T (protein) MFLKSLREQINLLKRQGDLRIINRPVDSYLEAAAIIRRSTETKAPVPLMTNIKGYPGCSIVGGLAALSSNPEYPLSRVAMSLGLSTTASAQSIVQYLIDGLKKTPYLPVEIDSNSAPCKQNILRGEDASLAHFPIPQVHQHDGNRYVNTWGVFIVESPDGQWCNWSIQRVQYLNDRQMIALVFPSQHISDIWEEWVKIGKPMPYALVQGCEPIVPYIAGLPLLERNVNEAEYIGALYGKGIEVVKCETHDLRVPASSEVVIEGYFAITREGVEGPFGEFAGYIENEQSLQPILSITAISWQDDPIWPVVAEGKPVDEYHTCTGIGDAAAIQNVLLTANLPVSFVWVPLYSACHLMIVSINRHWRQTHPDLTSEQLTKKVGDVIHQTRMSIKLPRIVVLDDDVDPADTESLLWALATRIHPERKRYFYESNIFPWLNCYSEEERHNRKGKRVIIDALLPENHGAISSFDYTYPDDIKQRVLMHWETDFSHD | ++++ |
| P284E-N287Q-S322T-N388M-K394R-C430N-L432F-L434W-S436N-G462R-dA463 (protein) MFLKSLREQINLLKRQGDLRIINRPVDSYLEAAAIIRRSTETKAPVPLMTNIKGYPGCSIVGGLAALSSNPEYPLSRVAMSLGLSTTASAQSIVQYLIDGLKKTPYLPVEIDSNSAPCKQNILRGEDASLAHFPIPQVHQHDGNRYVNTWGVFIVESPDGQWCNWSIQRVQYLNDRQMIALVFPSQHISDIWEEWVKIGKPMPYALVQGCEPIVPYIAGLPLLERNVNEAEYIGALYGKGIEVVKCETHDLRVPASSEVVIEGYFAITREGVEGPFGEFAGYIENEQSLQPILSITAISWQDDPIWPVVAEGKPVDEYHTCTGIGDAAAIQNVLLTANLPVSFVWVPLYSACHLMIVSINRHWRQTHPDLTSEQLTKKVGDVIHQTRMSIKLPRIVVLDDDVDPADTESLLWALATRIHPERKRYFYESNIFPWLNCYSEEERHNRKGKRVIIDALLPENHRAISSFDYAYPDDIKQRVLMHWETDFSHD | ++++ |
